The values that follow come from publication PMC11218781, “The heat shock factor 20-HSF4-cellulose synthase A2 module regulates heat stress tolerance in maize”.

Series [1] addresses T1, ZmHSF20 (Zea mays, UniProt K7U5Y9 1-318). Kind of series: EMSA; EMSA/Gel-Shift buffer (Beyotime GS009 kit), 4 °C, 1 h; salt and pH not stated. As to conditions: protein: recombinant; tags: His (pET28a); chain copies: 3; label: biotin; 5' overhang 1 nt on strand 1 as printed (reverse strand lacks the final C). Background: A gel shift assay detects complexes by their altered migration in electrophoresis.

Series [2] deals with T1, ZmHSF20. The series is described as follows: EMSA; unlabeled probe competes; EMSA/Gel-Shift buffer (Beyotime GS009 kit), 4 °C, 1 h; salt and pH not stated. The conditions noted are these: protein: recombinant; tags: His (pET28a); chain copies: 3; label: biotin; blunt.

T1 sequence (K7U5Y9 entry or part of it): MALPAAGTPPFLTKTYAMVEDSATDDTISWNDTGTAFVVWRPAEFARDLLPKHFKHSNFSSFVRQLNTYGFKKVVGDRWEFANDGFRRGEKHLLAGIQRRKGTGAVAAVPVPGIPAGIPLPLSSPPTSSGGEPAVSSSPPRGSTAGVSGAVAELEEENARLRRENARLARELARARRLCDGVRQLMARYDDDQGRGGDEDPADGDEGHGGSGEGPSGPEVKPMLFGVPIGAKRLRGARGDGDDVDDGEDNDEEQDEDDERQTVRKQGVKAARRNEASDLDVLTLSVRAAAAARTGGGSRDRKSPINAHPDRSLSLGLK

B1: ZmHSF4-P1 probe (dsDNA)
DNA 1: GCCTTCCAGAACCTTCCTTTCCCGAAATAG
DNA 2: CTATTTCGGGAAAGGAAGGTTCTGGAAGG
Take B1: the binding result with ZmHSF20 [1] is recorded as “binds”.

B2: ZmCesA2-P2 probe (dsDNA)
DNA 1: ATTTACTACTGAAATTTATAAGGATTTGCA
DNA 2: TGCAAATCCTTATAAATTTCAGTAGTAAAT
Take B2: the binding result with ZmHSF20 [2] is given as “binds”.
